In patent publication US11807689:

Molecular target: C1q Receptor in the complement system (rabbit serum complement) (rabbit)
Assay: cell-based or functional assay

CDC EC50 (Jeko-1 cells, rabbit serum) [µg/mL] | Substance
0.353 | ARZERRA (ofatumumab) (antibody)
1.21 | OCREVUS (ocrelizumab) (antibody)
0.245 | RITUXAN (rituximab) (antibody)
